# According to article PMC10942865 (2024):
# B1: Flag-PLK4 wt (polo-like kinase 4), full-length [human] / CEP192, endogenous [human (endogenous in HEK293T)] (parent complex)
# chain 1: MATCIGEKIEDFKVGNLLGKGSFAGVYRAESIHTGLEVAIKMIDKKAMYKAGMVQRVQNEVKIHCQLKHPSILELYNYFEDSNYVYLVLEMCHNGEMNRYLKNRVKPFSENEARHFMHQIITGMLYLHSHGILHRDLTLSNLLLTRNMNIKIADFGLATQLKMPHEKHYTLCGTPNYISPEIATRSAHGLESDVWSLGCMFYTLLIGRPPFDTDTVKNTLNKVVLADYEMPSFLSIEAKDLIHQLLRRNPADRLSLSSVLDHPFMSRNSSTKSKDLGTVEDSIDSGHATISTAITASSSTSISGSLFDKRRLLIGQPLPNKMTVFPKNKSSTDFSSSGDGNSFYTQWGNQETSNSGRGRVIQDAEERPHSRYLRRAYSSDRSGTSNSQSQAKTYTMERCHSAEMLSVSKRSGGGENEERYSPTDNNANIFNFFKEKTSSSSGSFERPDNNQALSNHLCPGKTPFPFADPTPQTETVQQWFGNLQINAHLRKTTEYDSISPNRDFQGHPDLQKDTSKNAWTDTKVKKNSDASDNAHSVKQQNTMKYMTALHSKPEIIQQECVFGSDPLSEQSKTRGMEPPWGYQNRTLRSITSPLVAHRLKPIRQKTKKAVVSILDSEEVCVELVKEYASQEYVKEVLQISSDGNTITIYYPNGGRGFPLADRPPSPTDNISRYSFDNLPEKYWRKYQYASRFVQLVRSKSPKITYFTRYAKCILMENSPGADFEVWFYDGVKIHKTEDFIQVIEKTGKSYTLKSESEVNSLKEEIKMYMDHANEGHRICLALESIISEEERKTRSAPFFPIIIGRKPGSTSSPKALSPPPSVDSNYPTRERASFNRMVMHSAASPTQAPILNPSMVTNEGLGLTTTASGTDISSNSLKDCLPKSAQLLKSVFVKNVGWATQLTSGAVWVQFNDGSQLVVQAGVSSISYTSPNGQTTRYGENEKLPDYIKQKLQCLSSILLMFSNPTPNFH
# chain 2: MEDFRGIAEESFPSFLTNSLFGNSGILENVTLSSNLGLPVAVSTLARDRSSTDNRYPDIQASYLVEGRFSVPSGSSPGSQSDAEPRERLQLSFQDDDSISRKKSYVESQRLSNALSKQSALQMETAGPEEEPAGATESLQGQDLFNRASPLEQAQDSPIDFHLQSWMNNKEPKIVVLDAGKHFEDKTLKSDLSHTSLLENEKLILPTSLEDSSDDDIDDEMFYDDHLEAYFEQLAIPGMIYEDLEGPEPPEKGFKLPTNGLRQANENGSLNCKFQSENNSSLISLDSHSSETTHKESEESQVICLPGTSNSIGTGDSRRYTDGMLPFSSGTWGTEKEIENLKGIVPDLNSECASKDVLVKTLRAIDVKLNSDNFHDANANRGGFDLTDPVKQGAECPHQNKTVLHMDGCLDTETPTVSIQENVDVASLKPISDSGINFTDAIWSPTCERRTCECHESIEKNKDKTDLPQSVVYQNEEGRWVTDLAYYTSFNSKQNLNVSLSDEMNEDFRSGSEAFDLIAQDEEEFNKEHQFIQEENIDAHNTSVALGDTSWGATINYSLLRKSRSTSDLDKDDASYLRLSLGEFFAQRSEALGCLGGGNNVKRPSFGYFIRSPEKREPIALIRKSDVSRGNLEKEMAHLNHDLYSGDLNEQSQAQLSEGSITLQVEAVESTSQVDENDVTLTADKGKTEDTFFMSNKPQRYKDKLPDSGDSMLRISTIASAIAEASVNTDPSQLAAMIKALSNKTRDKTFQEDEKQKDYSHVRHFLPNDLEKSNGSNALDMEKYLKKTEVSRYESALENFSRASMSDTWDLSLPKEQTTQDIHPVDLSATSVSVRAPEENTAAIVYVENGESENQESFRTINSSNSVTNRENNSAVVDVKTCSIDNKLQDVGNDEKATSISTPSDSYSSVRNPRITSLCLLKDCEEIRDNRENQRQNECVSEISNSEKHVTFENHRIVSPKNSDLKNTSPEHGGRGSEDEQESFRPSTSPLSHSSPSEISGTSSSGCALESFGSAAQQQQPPCEQELSPLVCSPAGVSRLTYVSEPESSYPTTATDDALEDRKSDITSELSTTIIQGSPAALEERAMEKLREKVPFQNRGKGTLSSIIQNNSDTRKATETTSLSSKPEYVKPDFRWSKDPSSKSGNLLETSEVGWTSNPEELDPIRLALLGKSGLSCQVGSATSHPVSCQEPIDEDQRISPKDKSTAGREFSGQVSHQTTSENQCTPIPSSTVHSSVADMQNMPAAVHALLTQPSLSAAPFAQRYLGTLPSTGSTTLPQCHAGNATVCGFSGGLPYPAVAGEPVQNSVAVGICLGSNIGSGWMGTSSLCNPYSNTLNQNLLSTTKPFPVPSVGTNCGIEPWDSGVTSGLGSVRVPEELKLPHACCVGIASQTLLSVLNPTDRWLQVSIGVLSISVNGEKVDLSTYRCLVFKNKAIIRPHATEEIKVLFIPSSPGVFRCTFSVASWPCSTDAETIVQAEALASTVTLTAIAESPVIEVETEKKDVLDFGDLTYGGWKALPLKLINRTHATVPIRLIINANAVAWRCFTFSKESVRAPVEVAPCADVVTRLAGPSVVNHMMPASYDGQDPEFLMIWVLFHSPKKQISSSDILDSAEEFSAKVDIEVDSPNPTPVLRSVSLRARAGIARIHAPRDLQTMHFLAKVASSRKQHLPLKNAGNIEVYLDIKVPEQGSHFSVDPKNLLLKPGEEHEVIVSFTPKDPEACEERILKIFVQPFGPQYEVVLKGEVISSGSKPLSPGPCLDIPSILSNKQFLAWGGVPLGRTQLQKLALRNNSASTTQHLRLLIRGQDQDCFQLQNTFGSEQRLTSNCEIRIHPKEDIFISVLFAPTRLSCMLARLEIKQLGNRSQPGIKFTIPLSGYGGTSNLILEGVKKLSDSYMVTVNGLVPGKESKIVFSVRNTGSRAAFVKAVGFKDSQKKVLLDPKVLRIFPDKFVLKERTQENVTLIYNPSDRGINNKTATELSTVYLFGGDEISRQQYRRALLHKPEMIKQILPEHSVLQNINFVEAFQDELLVTEVYDLPQRPNDVQLFYGSMCKIILSVIGEFRDCISSREFLQPSSKASLESTSDLGASGKHGGNVSLDVLPVKGPQGSPLLSRAARPPLDQLASEEPWTVLPEHLILVAPSPCDMAKTGRFQIVNNSVRLLRFELCWPAHCLTVTPQHGCVAPESKLQILVSPNSSLSTKQSMFPWSGLIYIHCDDGQKKIVKVQIREDLTQVELLTRLTSKPFGILSPVSEPSVSHLVKPMTKPPSTKVEIRNKSITFPTTEPGETSESCLELENHGTTDVKWHLSSLAPPYVKGVDESGDVFRATYAAFRCSPISGLLESHGIQKVSITFLPRGRGDYAQFWDVECHPLKEPHMKHTLRFQLSGQSIEAENEPENACLSTDSLIKIDHLVKPRRQAVSEASARIPEQLDVTARGVYAPEDVYRFRPTSVGESRTLKVNLRNNSFITHSLKFLSPREPFYVKHSKYSLRAQHYINMPVQFKPKSAGKFEALLVIQTDEGKSIAIRLIGEALGKN
# B2: Flag-PLK4 wt (polo-like kinase 4), full-length [human] / CEP152, endogenous [human (endogenous in HEK293T)] (parent complex)
# chain 1: B1 chain 1
# chain 2: MSLDFGSVALPVQNEDEEYDEEDYEREKELQQLLTDLPHDMLDDDLSSPELQYSDCSEDGTDGQPHHPEQLEMSWNEQMLPKSQSVNGYNEIQSLYAGEKCGNVWEENRSKTEDRHPVYHPEEGGDEGGSGYSPPSKCEQTDLYHLPENFRPYTNGQKQEFNNQATNVIKFSDPQWNHFQGPSCQGLEPYNKVTYKPYQSSAQNNGSPAQEITGSDTFEGLQQQFLGANENSAENMQIIQLQVLNKAKERQLENLIEKLNESERQIRYLNHQLVIIKDEKDGLTLSLRESQKLFQNGKEREIQLEAQIKALETQIQALKVNEEQMIKKSRTTEMALESLKQQLVDLHHSESLQRAREQHESIVMGLTKKYEEQVLSLQKNLDATVTALKEQEDICSRLKDHVKQLERNQEAIKLEKTEIINKLTRSLEESQKQCAHLLQSGSVQEVAQLQFQLQQAQKAHAMSANMNKALQEELTELKDEISLYESAAKLGIHPSDSEGELNIELTESYVDLGIKKVNWKKSKVTSIVQEEDPNEELSKDEFILKLKAEVQRLLGSNSMKRHLVSQLQNDLKDCHKKIEDLHQVKKDEKSIEVETKTDTSEKPKNQLWPESSTSDVVRDDILLLKNEIQVLQQQNQELKETEGKLRNTNQDLCNQMRQMVQDFDHDKQEAVDRCERTYQQHHEAMKTQIRESLLAKHALEKQQLFEAYERTHLQLRSELDKLNKEVTAVQECYLEVCREKDNLELTLRKTTEKEQQTQEKIKEKLIQQLEKEWQSKLDQTIKAMKKKTLDCGSQTDQVTTSDVISKKEMAIMIEEQKCTIQQNLEQEKDIAIKGAMKKLEIELELKHCENITKQVEIAVQNAHQRWLGELPELAEYQALVKAEQKKWEEQHEVSVNKRISFAVSEAKEKWKSELENMRKNILPGKELEEKIHSLQKELELKNEEVPVVIRAELAKARSEWNKEKQEEIHRIQEQNEQDYRQFLDDHRNKINEVLAAAKEDFMKQKTELLLQKETELQTCLDQSRREWTMQEAKRIQLEIYQYEEDILTVLGVLLSDTQKEHISDSEDKQLLEIMSTCSSKWMSVQYFEKLKGCIQKAFQDTLPLLVENADPEWKKRNMAELSKDSASQGTGQGDPGPAAGHHAQPLALQATEAEADKKKVLEIKDLCCGHCFQELEKAKQECQDLKGKLEKCCRHLQHLERKHKAVVEKIGEENNKVVEELIEENNDMKNKLEELQTLCKTPPRSLSAGAIENACLPCSGGALEELRGQYIKAVKKIKCDMLRYIQESKERAAEMVKAEVLRERQETARKMRKYYLICLQQILQDDGKEGAEKKIMNAASKLATMAKLLETPISSKSQSKTTQSALPLTSEMLIAVKKSKRNDVNQKIPCCIESKSNSVNTITRTLCEQAPKRRAACNLQRLLENSEHQSIKHVGSKETHLEFQFGDGSCKHLNSLPRNVSPEFVPCEGEGGFGLHKKKDLLSDNGSESLPHSAAYPFLGTLGNKPSPRCTPGPSESGCMHITFRDSNERLGLKVYKCNPLMESENAASEKSQGLDVQEPPVKDGGDLSDCLGWPSSSATLSFDSREASFVHGRPQGTLEIPSESVKSKQFSPSGYLSDTEESNMICQTMKCQRYQTPYLSEETTYLEPGKISVNCGHPSRHKADRLKSDFKKLSSTLPSSVCQQPSRKLIVPLSSQQDSGFDSPFVNLD
# B3: Flag-PLK4 wt (polo-like kinase 4), full-length [human] / DCAF1 (VprBP), endogenous [human (endogenous in HEK293T)] (parent complex)
# chain 1: B1 chain 1
# chain 2: not shown
# Variants of: B1
# Test: co-immunoprecipitation (IP against Flag tag, Western blot quantification); HEK293T cells, 48 h overexpression, N = 3; read off a plot
row,Variant,ratio to parent
1,chain 1 K608A,~0.1
2,chain 1 I602E,~0.01
3,chain 1 K699A,~0.1
4,chain 1 R691A,~1.5

# Variants of: B2
# Test: as above
row,Variant,ratio to parent
1,chain 1 I602E,~0.03
2,chain 1 R691A,~0.83
3,chain 1 K608A,~0.16
4,chain 1 K699A,~0.09

# Variants of: B3
# Test: as above
row,Variant,ratio to parent
1,chain 1 K748A,~1.5
2,chain 1 K753A,~1.6

# Variants of: B3
# Test: as above
# Remark: another data set of the same source
row,Variant,ratio to parent
1,chain 1 K41R,~0.79
2,"chain 1 S285A, chain 1 T289A",~0.58

# Variants of: B3
# Test: as above
# Remark: another data set of the same source
row,Variant,ratio to parent
1,chain 1 K608A,~0
2,chain 1 R691A,~0.05
3,chain 1 I602E,~0.01
4,chain 1 K699A,~0
